Reference: the supplement of paper PMC10567573

B1: POMT2 (parent)
chain: YHEAPMTRKHYQVTGYGINGTGDS
B2: ZER1 (parent)
chain: PILRLLPQGISPVSQHWATWALYN

Variants of: B1
Assay: protein stability index of a GFP-peptide fusion (GPS, HEK-293T) (PSI 1-6); higher = more stable
Details: c terminus: a fixed tail appended
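Note: lentivirally expressed fusions sorted by FACS into six bins by GFP to DsRed ratio, PSI derived from sequencing read proportions per bin multiplied by bin number.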

Protein stability index of substitutions, site by site:
P5: M 2.79; A 2.62; V 2.14; H 2.74; K 2.36; L 1.89; F 2.77; Y 1.73; W 1.63; C 2.31; Q 2.84; G 2.51; D 2.72; E 3.17; R 2.29; N 2.32; T 2.02; I 3.27; S 2.69
T7: Y 1.47; A 2.33; I 2.45; H 2.03; R 1.87; N 1.82; M 2.17; G 2.08; S 2.3; V 2.07; E 2.39; C 2.2; Q 2.57; W 3.27; K 1.86; L 1.79; D 2.66; F 1.92; P 2.42
E3: H 1.77; L 1.61; M 1.67; R 1.47; A 2.46; T 2.32; S 1.6; C 2; D 2.15; Y 1.77; K 1.9; W 1.44; P 2.87; Q 1.34; V 2.22; N 2.38; F 1.52; G 2.75; I 1.73
H2: T 2.58; E 3.95; I 2.21; G 2.92; V 1.89; L 3.07; Q 3.33; M 3.09; N 3.5; C 1.97; F 3.38; Y 2.75; A 2.56; K 3.57; P 2.99; R 3.81; W 2.72; S 3.39; D 3.98
M6: S 2.59; T 2.43; Q 2.68; C 2; V 2.67; R 2.7; Y 1.98; A 2.48; P 2.55; L 2.41; K 2.55; H 1.69; I 2.83; E 2.56; D 2.36; F 1.82; W 1.42; G 2.38; N 2.15
R8: C 1.95; Y 2.09; K 2.44; Q 2.86; I 1.94; F 2.09; M 2.68; H 3.02; V 2.55; W 1.62; P 2.31; L 3.16; G 2.74; A 2.61; N 2.82; S 2.6; T 2.44; D 3.19; E 3
Y1: F 1.89; I 4.03; V 3.49; D 3.94; L 3.47; S 3.68; W 3.72; A 3.68; P 4.07; M 3.71; E 4.3; H 3.58; K 3.97; N 3.5; Q 3.9; T 3.91; G 3.53; C 3.05; R 3.51
A4: Q 2.68; L 1.91; D 2.95; Y 3.11; P 1.96; I 2.42; N 1.69; E 2.93; C 2.5; K 2.18; V 2.96; F 2.68; W 2.2; G 2.37; T 2.21; H 2.04; M 1.49; R 2.45; S 1.92
K9: E 3.29; H 1.84; L 1.97; G 2.51; F 2.13; D 3.42; I 2.12; A 2.31; C 2.42

Variants of: B2
Assay: as above
Details: c terminus: a fixed tail appended

Protein stability index, by site and new letter:
N24: W 2.32; R 4.17; P 3.08; Q 2.31; T 2.25; V 3.21
